Series [1] deals with DmORC Orc1deltaN;DmCdc6deltaN241 (Drosophila melanogaster;Drosophila …, UniProt O16810;Q24168;Q7K2L1;Q9W102;Q24169;Q9Y1B2;Q9VSM9 …, |del1-241). As to the kind of experiment: cryo-EM; ATP, Mg2+; Anisotropy: 1 nM dsDNA, 25 mM HEPES-KOH pH 7.6, 300 mM K-glutamate, 10 mM Mg-acetate, 10% glycerol, 0.1% NP40, 1 mM DTT, 0.1 mg/mL BSA, 0 or 1 mM ATP, 25 C, 40. The note with it: protein: recombinant;recombinant; tags: tags cleaved;6xHis-MBP cleaved by TEV; copies: 1;1;1;1;1;1;1; blunt.
DmORC Orc1deltaN;DmCdc6deltaN241, sequence (chain, as listed by the source |del1-241 | mutant, chain 4 of 3): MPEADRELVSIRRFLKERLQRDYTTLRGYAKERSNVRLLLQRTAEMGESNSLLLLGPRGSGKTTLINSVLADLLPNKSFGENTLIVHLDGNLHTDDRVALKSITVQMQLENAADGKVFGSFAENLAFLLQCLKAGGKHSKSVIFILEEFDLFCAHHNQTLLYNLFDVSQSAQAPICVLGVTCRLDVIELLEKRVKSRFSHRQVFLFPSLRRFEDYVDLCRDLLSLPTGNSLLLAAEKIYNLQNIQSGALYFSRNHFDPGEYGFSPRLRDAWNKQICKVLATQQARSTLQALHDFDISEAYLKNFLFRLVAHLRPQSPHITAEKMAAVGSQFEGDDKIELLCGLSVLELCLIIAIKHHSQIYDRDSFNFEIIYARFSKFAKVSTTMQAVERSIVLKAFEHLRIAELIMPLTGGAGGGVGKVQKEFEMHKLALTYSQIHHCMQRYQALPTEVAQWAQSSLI
DmORC Orc1deltaN;DmCdc6deltaN241, sequence (Q24169 whole entry, stated change not applied, chain 5 of 3): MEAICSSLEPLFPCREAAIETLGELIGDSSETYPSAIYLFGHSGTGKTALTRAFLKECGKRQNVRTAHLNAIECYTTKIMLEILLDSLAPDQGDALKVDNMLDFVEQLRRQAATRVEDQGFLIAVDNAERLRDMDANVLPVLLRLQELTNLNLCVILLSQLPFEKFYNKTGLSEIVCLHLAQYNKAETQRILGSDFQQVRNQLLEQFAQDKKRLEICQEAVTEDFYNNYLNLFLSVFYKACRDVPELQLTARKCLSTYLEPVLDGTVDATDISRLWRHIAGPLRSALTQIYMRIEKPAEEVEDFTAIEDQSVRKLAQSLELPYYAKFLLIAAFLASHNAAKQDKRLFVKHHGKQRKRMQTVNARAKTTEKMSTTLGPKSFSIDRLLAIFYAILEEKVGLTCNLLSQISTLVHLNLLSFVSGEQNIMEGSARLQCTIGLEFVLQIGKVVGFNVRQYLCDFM
DmORC Orc1deltaN;DmCdc6deltaN241, sequence (Q9Y1B2 whole entry, stated change not applied, chain 6 of 3): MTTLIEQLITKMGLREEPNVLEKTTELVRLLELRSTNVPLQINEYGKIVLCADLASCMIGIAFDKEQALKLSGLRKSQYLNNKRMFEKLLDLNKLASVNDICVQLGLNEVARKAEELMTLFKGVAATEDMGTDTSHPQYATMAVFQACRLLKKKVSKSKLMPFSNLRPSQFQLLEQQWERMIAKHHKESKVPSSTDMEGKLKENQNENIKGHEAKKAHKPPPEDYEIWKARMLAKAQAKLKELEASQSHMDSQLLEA

Series [2] deals with T1, Drosophila origin recognition complex, full-length (DmORC) (Drosophila, UniProt O16810 1-924; Q24168 1-618; Q7K2L1 1-721; Q9W102 1-459; Q24169 1-460; Q9Y1B2 …).
T1 construct: Orc1, Drosophila, subunit of full-length DmORC; Orc2, Drosophila, subunit of full-length DmORC; Orc3, Drosophila, subunit of full-length DmORC; Orc4, Drosophila, subunit of full-length DmORC; Orc5, Drosophila, subunit of full-length DmORC; Orc6, Drosophila, subunit of full-length DmORC; Heterohexamer Orc1-6; also called wild type DmORC; not shown: 6xHis, N-terminal, cleaved; MBP, N-terminal, …
As to the kind of experiment: pull-down; MBP-DmCdc6 or 6xHis-MBP-DmCdc6ΔN (200 nM) as bait on amylose beads; DmORC (100 nM) with 60 bp AT-rich dsDNA (100 nM); 25 mM HEPES-KOH pH 7.6, 300 mM potassium glutamate, 10 mM magnesium acetate, 10% glycerol, 1 mM DTT, 0 or 1 mM ATP; 25 °C; SDS-PAGE and silver staining. The note with it: both partners purified.

In series [3] the target is T2, Drosophila origin recognition complex with N-terminally truncated Orc1 (DmORC^Orc1ΔN) (Drosophila, UniProt O16810 440-924; Q24168 1-618; Q7K2L1 1-721; Q9W102 1-459; Q24169 1-460; Q9Y1B2 …).
T2 construct: Orc1, Drosophila, without the N-terminal 439 amino acid residues (Orc1ΔN); Orc2, Drosophila; only Orc1 is named as truncated in DmORC^Orc1ΔN; Orc3, Drosophila; Orc4, Drosophila; Orc5, Drosophila; Orc6, Drosophila; full-length DmOrc6 was used to reconstitute the binary and ternary complexes; Heterohexamer used for cryo-EM and for the pull-down with Cdc6ΔN; also called truncated DmORC; not shown: …
T2 sequence (chain, as listed by the source mutant, chain 4 of 3): as the sequence (chain, as listed by the source |del1-241 | mutant, chain 4 of 3) above
T2 sequence (Q24169 whole entry, stated change not applied, chain 5 of 3, the tested form may be a part): as the sequence (Q24169 whole entry, stated change not applied, chain 5 of 3) above
T2 sequence (Q9Y1B2 whole entry, stated change not applied, chain 6 of 3, the tested form may be a part): as the sequence (Q9Y1B2 whole entry, stated change not applied, chain 6 of 3) above
As to the kind of experiment: cryo-EM structure; DmORC^Orc1ΔN (2.5 μM), duplex DNA (3 μM; 60 bp AT-rich, 84 bp AT-rich, 60 bp poly(dA·dT) or 60 bp GC-rich) and DmCdc6ΔN (6.8 μM) assembled at 25 °C in 25 mM HEPES-KOH pH 7.6, 250 mM potassium acetate, 10 mM magnesium acetate, 1 mM DTT, 1 mM ATP; purified by gel filtration. To be noted: both partners purified. Background: In gel filtration, larger molecules generally elute earlier.

The target in series [4] is T3, Drosophila Orc1 lacking the N-terminal 439 residues (Orc1ΔN), subunit of DmORC^Orc1ΔN (Drosophila, UniProt O16810 440-924).
T3 construct: Orc1, Drosophila, without the N-terminal 439 amino acid residues; also called DmOrc1; source: Hi5 insect cells, co-expressed with the other ORC subunits, purified as part of DmORC^Orc1ΔN; not shown: 6xHis, N-terminal, cleaved
T3 sequence (looked up): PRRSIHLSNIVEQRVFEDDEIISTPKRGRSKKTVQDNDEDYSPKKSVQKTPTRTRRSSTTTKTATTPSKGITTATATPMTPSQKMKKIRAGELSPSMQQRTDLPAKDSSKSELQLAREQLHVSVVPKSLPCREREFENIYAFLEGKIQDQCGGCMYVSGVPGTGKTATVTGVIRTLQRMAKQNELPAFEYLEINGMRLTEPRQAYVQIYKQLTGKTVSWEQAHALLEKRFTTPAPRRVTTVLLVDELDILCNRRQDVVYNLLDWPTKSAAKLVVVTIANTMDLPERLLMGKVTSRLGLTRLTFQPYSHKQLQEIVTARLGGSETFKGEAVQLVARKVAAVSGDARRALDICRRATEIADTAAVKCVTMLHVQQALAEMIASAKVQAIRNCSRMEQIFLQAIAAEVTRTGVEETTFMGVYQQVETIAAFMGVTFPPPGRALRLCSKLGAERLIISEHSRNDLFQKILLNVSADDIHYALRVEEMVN
Described as above. The note with it: both partners purified.

In series [5] the target is T4, Drosophila Orc2, subunit of DmORC^Orc1ΔN (Drosophila, UniProt Q24168 1-618).
T4 construct: Orc2, Drosophila; only Orc1 is named as truncated in DmORC^Orc1ΔN; also called DmOrc2; source: Hi5 insect cells, co-expressed with the other ORC subunits, purified as part of DmORC^Orc1ΔN
T4 sequence: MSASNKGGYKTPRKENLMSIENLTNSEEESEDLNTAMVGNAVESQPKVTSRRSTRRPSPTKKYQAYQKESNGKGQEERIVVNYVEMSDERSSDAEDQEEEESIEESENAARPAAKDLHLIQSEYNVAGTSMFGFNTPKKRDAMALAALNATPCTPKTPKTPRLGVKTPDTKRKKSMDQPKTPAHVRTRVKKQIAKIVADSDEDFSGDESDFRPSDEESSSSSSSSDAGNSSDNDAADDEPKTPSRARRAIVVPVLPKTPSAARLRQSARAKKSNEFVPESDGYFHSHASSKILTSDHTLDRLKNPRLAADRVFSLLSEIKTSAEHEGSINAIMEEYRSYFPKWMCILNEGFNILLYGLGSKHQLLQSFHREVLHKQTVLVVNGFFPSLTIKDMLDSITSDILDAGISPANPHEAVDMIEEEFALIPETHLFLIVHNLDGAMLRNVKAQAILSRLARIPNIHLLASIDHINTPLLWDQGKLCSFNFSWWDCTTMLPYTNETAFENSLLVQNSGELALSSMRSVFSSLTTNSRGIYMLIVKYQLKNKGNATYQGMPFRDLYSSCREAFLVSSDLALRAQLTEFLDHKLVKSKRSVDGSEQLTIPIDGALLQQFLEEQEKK
The description is as above. To be noted: both partners purified.

Series [6] addresses T5, Drosophila Orc3, subunit of DmORC^Orc1ΔN (Drosophila, UniProt Q7K2L1 1-721).
T5 construct: Orc3, Drosophila; only Orc1 is named as truncated in DmORC^Orc1ΔN; also called DmOrc3; source: Hi5 insect cells, co-expressed with the other ORC subunits, purified as part of DmORC^Orc1ΔN
T5 sequence: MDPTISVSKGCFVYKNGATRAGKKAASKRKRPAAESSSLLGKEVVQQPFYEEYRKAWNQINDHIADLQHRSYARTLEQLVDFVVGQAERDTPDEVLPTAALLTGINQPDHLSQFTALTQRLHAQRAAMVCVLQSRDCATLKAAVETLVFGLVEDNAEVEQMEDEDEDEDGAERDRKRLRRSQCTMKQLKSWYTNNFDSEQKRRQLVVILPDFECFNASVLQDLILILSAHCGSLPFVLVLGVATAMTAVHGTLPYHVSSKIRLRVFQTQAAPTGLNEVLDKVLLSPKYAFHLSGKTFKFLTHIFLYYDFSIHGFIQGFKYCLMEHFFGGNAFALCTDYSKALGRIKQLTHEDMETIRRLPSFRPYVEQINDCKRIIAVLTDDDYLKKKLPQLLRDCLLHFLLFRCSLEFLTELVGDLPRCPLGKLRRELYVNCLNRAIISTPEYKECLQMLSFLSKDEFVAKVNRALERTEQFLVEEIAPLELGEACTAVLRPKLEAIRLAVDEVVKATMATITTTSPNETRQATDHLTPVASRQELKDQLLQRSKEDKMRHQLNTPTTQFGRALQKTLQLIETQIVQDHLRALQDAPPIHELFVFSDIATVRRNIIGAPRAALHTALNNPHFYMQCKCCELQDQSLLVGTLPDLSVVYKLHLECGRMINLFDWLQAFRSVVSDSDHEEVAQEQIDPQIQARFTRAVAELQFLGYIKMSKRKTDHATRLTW
The description is as above. The note with it: both partners purified.

Series [7] addresses T2, Drosophila origin recognition complex …. Kind of series: pull-down; MBP-DmCdc6 or 6xHis-MBP-DmCdc6ΔN (200 nM) as bait on amylose beads; DmORC (100 nM) with 60 bp AT-rich dsDNA (100 nM); 25 mM HEPES-KOH pH 7.6, 300 mM potassium glutamate, 10 mM magnesium acetate, 10% glycerol, 1 mM DTT, 0 or 1 mM ATP; 25 °C; SDS-PAGE and silver staining. To be noted: both partners purified.

The values that follow come from publication PMC7450096, “Structural mechanism for replication origin binding and remodeling by a metazoan origin recognition complex and its co-loader Cdc6” (Nature Communications, 2020).

B1: 60 bp GC-rich (70% GC) (dsDNA)
DNA 1: GGGGCTCGACTCCAAGTGCGGGGCACTCGTCTGTGAGGGGGCTCAGTTCGCACTGCGGGG
DNA 2: CCCCGCAGTGCGAACTGAGCCCCCTCACAGACGAGTGCCCCGCACTTGGAGTCGAGCCCC
B1: the binding result in series [1] is “binds”.

B2: 84 bp AT-rich (dsDNA)
DNA 1: TTTGTGCACTTGCCTGCAGGCCTTTTGAAAAGCAAGCATAAAAGATCTAAACATAAAATCTGTAAAATAACAAGATGTAAAGAT
DNA 2: ATCTTTACATCTTGTTATTTTACAGATTTTATGTTTAGATCTTTTATGCTTGCTTTTCAAAAGGCCTGCAGGCAAGTGCACAAA
Take B2: the binding result in series [1] is on record as “binds”.

B3: full-length MBP-tagged Drosophila Cdc6 (MBP-DmCdc6) (natural protein, UniProt Q9VSM9 1-662, looked up)
chain: MAAVRRSTRLSSISKATAASPLPPSTQTPRRSEVWKRRQPKKVLADSDEEEEVVTAIYDLTSPVSENNENRNVLNKMDKISRRRTSQVQVAQSELPKTPRSTKKTVQSAGSSRAKREEENREATARFLEGEQDSEVDPLHGSPPKQRKLQPLPQHLISPSRLLDRLSIDERQEEEVEATTHKTETAEQQPKHQAKDEAKPRPKQQEDPLAQKQQEKPPTKQPNKNQTKEKSNIQTNEETQQNNLPSPSRNKYQNARRVLNSAETQNLPGRESQLQELREFFSNHLESQTSGSLYVSGQPGTGKTACLSLLLRDPDFSKRLQRVYINCTSIASVGAVYKKLCTELQLKVSGRTERDHLEAIQRHLKTAKRMLLLVLDEIDQLCTSRQEVLYTIFEWPALPGSRILLVGIANSLDLTDRALMRLNARCELKPRLMHFPPYSKQQIVEIFKSRLAEAEVLDVFPPVTLQLLAAKVSAISGDVRRALDIGRRVVEIAEQQKRDGEKEFNMKALQLEGKDAVEAKEKQDTLKPVQVTQVAAVLNKVYGASQNLEEDIEASFPLQQKLMLCTLVLMLRNERNKDISMGRLHEVYRRVCAKRNILALDQAEFTGTVDLVETRGILRIMRKKEPRLHKVLLQWDEEEVHAALSDKQLIASILSDTACLSK
notes: TEV site between MBP and Cdc6; source: Hi5 insect cells, baculovirus, purified (amylose, gel filtration); not shown: MBP, N-terminal, kept
With B3, the binding result in series [2] is listed as “binds”.

B4: N-terminally truncated Drosophila Cdc6 (DmCdc6ΔN241), tags removed (domain or fragment, UniProt Q9VSM9 242-662, looked up)
chain: NNLPSPSRNKYQNARRVLNSAETQNLPGRESQLQELREFFSNHLESQTSGSLYVSGQPGTGKTACLSLLLRDPDFSKRLQRVYINCTSIASVGAVYKKLCTELQLKVSGRTERDHLEAIQRHLKTAKRMLLLVLDEIDQLCTSRQEVLYTIFEWPALPGSRILLVGIANSLDLTDRALMRLNARCELKPRLMHFPPYSKQQIVEIFKSRLAEAEVLDVFPPVTLQLLAAKVSAISGDVRRALDIGRRVVEIAEQQKRDGEKEFNMKALQLEGKDAVEAKEKQDTLKPVQVTQVAAVLNKVYGASQNLEEDIEASFPLQQKLMLCTLVLMLRNERNKDISMGRLHEVYRRVCAKRNILALDQAEFTGTVDLVETRGILRIMRKKEPRLHKVLLQWDEEEVHAALSDKQLIASILSDTACLSK
notes: Cdc6, Drosophila, ΔN241, amino acids 242-662; not shown: 6xHis, N-terminal, cleaved; MBP, N-terminal, cleaved
Consider B4, for which the binding result in series [3], in series [4], in series [5] and in series [6] was “binds” in each case.

B5: 6xHis-MBP-tagged N-terminally truncated Drosophila Cdc6 (6xHis-MBP-DmCdc6ΔN241) (domain or fragment, UniProt Q9VSM9 242-662, looked up)
chain: B4 chain
notes: Cdc6, Drosophila, ΔN241, amino acids 242-662; also called 6xHis-MBP-tagged DmCdc6ΔN241; source: TEV cleavage omitted; not shown: 6xHis, N-terminal, kept; MBP, N-terminal, kept
In the case of B5, the binding result in series [7] is “binds”.
